Molecular target: purified recombinant SD1/2 protein
Assay: ITC; peptide (300 μM in the syringe) injected into SD1/2 protein (30 μM) in the cell; 25°C; 20 mM NaPi (pH 6.8), 50 mM NaCl, 0.5 mM EDTA; one-site binding model

Binder	Kd	stoichiometry N
Ac-DDSDVWWGGADTDYADG-NH2 [APP17]	543 nM	1.05
Ac-DWGADTVSGDGYDAWDD-NH2 [sc-APP17]	> 300000 nM	
